From patent US6022720A, “Bax protein channel formation” (Glaxo Wellcome Inc., priority 1997, dated 2000)

B1: stathmin: unrelated control protein (protein, UniProt P16949 2-149, looked up)
Stathmin: ASSDIQVKELEKRASGQAFELILSPRSKESVPEFPLSPPKKKDLSLEEIQKKLEAAEERRKSHEAEVLKQLAEKREHEKEVLQKAIEENNNFSKMAEEKLTHKMEANKENREAQMAAKLERLREKDKHIEEVRKNKESKDPADETEAD

Tests used:
sympathetic neurons = assay: Lytic effects of added protein on sympathetic neurons; format: cell-based; conditions: coaddition of control protein with 10 μM Bax
Procedure: The effect of soluble recombinant Bax and Bcl-2 on the integrity of sympathetic neurons and sheep erythrocytes was tested. Ten μM Bax protein was added to serum-free medium of sympathetic neurons. […] (see FIG. 7B).

Bax = molecular target: T1, Bax (Homo sapiens, UniProt Q07812); assay: Inhibition of Bax-induced release of carboxyfluorescein from liposomes; format: biochemical; conditions: control protein preincubated with liposomes before Bax 70 nm
T1 construct: GST (pGEX2T, thrombin site) (N, cleaved yes); made in house; host or cells: E. coli PR745
Procedure: To determine whether Bax was a pore-forming protein, a study was undertaken to determine whether Bax could trigger the release of liposome-encapsulated carboxyfluorescein. […] The liposomes were dialyzed for 24 hours against PBS and diluted to 8 ml. For analysis at acidic pH, fluorescence of released dye was measured after adjustment of pH to 7.5 by addition of 1 M Tris-HCl pH 7.5.
In each test 20 μl of liposomes containing 20 mM carboxyfluorescein was diluted in 1 ml of PBS (pH 7.5) and 5 μl of purified protein was added at the time indicated by the arrow. Incubation was performed at room temperature. Final Bax concentrations are indicated for each curve (see FIG. 8A). Bcl-2 was tested at 70 nM. Each curve of FIG. 8A was normalized by subtraction of the initial fluorescence value obtained at time 0.
Liposomes (20 μl in 1 ml PBS) were first incubated (15 min at room temperature) with Bcl-2 or with a control protein (stathmin) before addition of Bax (70 nm) to the liposome solution.
After addition of the compound, 80 nM Bax was added to the liposome suspension and the fluorescence measured with a spectrofluorimeter.

T1 sequence (Q07812 with tags, fused parts or gaps limits assumed): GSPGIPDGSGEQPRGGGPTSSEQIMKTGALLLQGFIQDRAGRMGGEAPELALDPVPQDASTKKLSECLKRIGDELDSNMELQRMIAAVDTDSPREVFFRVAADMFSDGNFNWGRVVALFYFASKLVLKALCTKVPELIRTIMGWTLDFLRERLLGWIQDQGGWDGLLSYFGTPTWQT

Row | Molecule | effect on Bax-induced neuronal lysis upon coaddition (sympathetic neurons) | effect on Bax function (carboxyfluorescein efflux) (Bax)
1 | ERK2: control protein [reference compound] | no effect | 
2 | B1 | no effect | no adverse effect
